The text below walks through data of the DeepSol protein solubility set.

A short description of the series: soluble on expression in E. coli; label from the status in PepcDB or PDB records.
As for “MGSDKIHHHHHHYLNTLQRELENAGIESRLVRRFGYTQEAVDWADAVFSAGGDGTFLMASSRVRTKHKPVIGINTDPQGSEGYMCLMRKLPEENLAGALKKLFSGNFEWLNRQRIRITVTGDDGISDAIELHDQQLNRDPATTRWTDNPRSPAREIEECMSLSPPVKKRMISEAVEIPEVEKETVELPVLALNEVFIGESLSSRVSYYEIGINDAQMLKQKSSGITICTGTGSTSWNFNINKLTEQCVQDLMKIVAEHCNLPQIPHGDKNAVSEICTKFNQQLIFDPDRKQLAFSVRDPIFNATFPPTDPRGFADKICIKSRGYDAHLVIDGGISYRFNDGSEAVMEVRDEDTLRTVVFR”, the “soluble on expression in E. coli” value was “not soluble”.
In the case of “MEKLVAYKRMPLWNKQTMPEAVQQKHNTKVGTWGKITVLKGALKFIELTEEGEVLAEHLFEAGADNPMAQPQAWHRVEAATDDVEWYLEFYCKPEDYFAKKYNTNPVHSEVLEAMQTVKQGKALDLGCGQGRNSLFLAQQDFDVTAVDQNGLALEILQSIVEQEDLDMPVGLYDINSASIEQEYDFIVSTVVLMFLQADRIPAIIQNMQEKTSVGGYNLIVCAMDTEDYPCSVNFPFTFKEGELADYYKDWELVKYNENPGHLHRRDENGNRIQLRFATLLAKKIKLEHHHHHH” it was “soluble”; in that of “MRYPEHADPVITLTAGPVNAYPEVLRGLGRTVLYDYDPAFQLLYEKVVDKAQKAMRLSNKPVILHGEPVLGLEAAAASLISPDDVVLNLASGVYGKGFGYWAKRYSPHLLEIEVPYNEAIDPQAVADMLKAHPEITVVSVCHHDTPSGTINPIDAIGALVSAHGAYLIVDAVSSFGGMKTHPEDCKADIYVTGPNKCLGAPPGLTMMGVSERAWAKMKANPLAPRASMLSIVDWENAWSRDKPFPFTPSVSEINGLDVALDLYLNEGPEAVWARHALTAKAMRAGVTAMGLSVWAASDSIASPTTTAVRTPDGVDEKALRQAARARYGVVFSSGRGETLGKLTRIGHMGPTAQPIYAIAALTALGGAMNAAGRKLAIGKGIEAALAVIDADA”, “soluble”.
Under “MKLTTLGSWGAYPYQDAGTTSYLVTGHDGFQLLMDAGSRALNELEKEISPLDLDAVIISHYHPDHVADLGVLRHYFQLYPKHLWQPKVLPIYGHDEDRNEFAKLSIPDVSEGRAYDVTGVEQIGSFDITFLKTVHPVVCYAFRIVERATGQVLVFTGDSGYFEGLADFAKEADLFLADVYLYEGNENHMAHLTSKEAGLMASQAGVKKLVLTHMPPVPPDGINSKNHLEVLRQETQAYAGNIPVDLALPHKSWNLGSLS” stands “not soluble”.
As to “MEPQLRCIGCGAAIQFENPKNAGYAPKSVLEKDAEEVICQRCFRLKHYNEVQDVPLDDDDFLSMLHRIGESKALVVNIVDIFDFNGSFIPGLPRFAADNPILLVGNKADLLPRSVKYPKLLRWMRRMAEELGLCPVDVCLVSAAKGIGMAKVMEAINRYREGGDVYVVGCTNVGKSTFINRIIEEATGKGNVITTSYFPGTTLDMIEIPLESGATLYDTPGIINHHQMAHFVDARDLKIITPKREIHPRVYQLNEGQTLFFGGLARLDYIKGGRRSFVCYMANELTVHRTKLEKADSLYANQLGELLSPPSKRYAAEFPPLVPRSLSVKERKTDIVFSGLGWVTCNDPGAQLVVHAPKGVDVFIRQSLI”, the “soluble on expression in E. coli” value was “soluble”.
“MYVMTQSGWLEVICGCMFSGKSEELIRRVRLAQFAKQEVKVFKPTIDNRYSEDAVVSHNGNSVIAIPVATPAEMFRYISAATDVVAIDEVQFFSDDIIDVVQTLADGGCRVITAGLDQDFRGEPFGPVPALMAIAESVTKLQAVCTVCGSPASRTQRLINGAPASYDDPVILVGASEAYEPRCRHHHEVPGKPKKRYNRPLAGHTGE”: the “soluble on expression in E. coli” value is “not soluble”.
Under “MAHHHHHHMDINNIMEEVQAIKVLPHMMFNASKLKVLSDYVNVAFENNEYYDNDVMLTLLRLFCLYPHCYDKDIIKKILICVLYNINNVDMNMYMSLINSSLYDDNIKSVIYIYELIKNCQYKKLWNCINNNIGNEYNNCDYSYLKNDKNFICNIRKYILNTISISFESIYLKNMSEYLNIQDNTQLEQFLNENKWTIKMINHKGKDEQICYNGNIETVQNKKNINTYFTEDNIGSYITKLNH” stands “not soluble”; under “MNFISLSIFSEHLKSLFPFFTPNPFLNANVAVNDDVSSPNSSVTANYGHGTRACYTHRMGRFLSPKKAFFRFSLIN”, “not soluble”.
In the case of “MHRSFAAFSILLVAIPQASSFLFGGGCCGAPAVQSCCGSTSWAYAPPQVIGYERIPLYAKVPMPPPPTYVQPPLVGYVSPQQPVAPQGYQQQPQQQFMGQVEQGVEITPDQINSGYQPQQQMGFQSQQQQFSSIPNSGSSNYGADSSFSGSQPAGLVQSVASSAAFEAAGVAPSARRLRKFKN” it was “not soluble”; in that of “MSLNPPLPHFRYHPEPLASGSIEASATTCQCCGKARGYVYTGSPYSRHELPPGSLCPWCIADGSAAARYEASFSDDYPLLDAGVAADIVTEVCERTPGYTSWQRERWLVCCEDACAFRGDAGREEIGQLGAEGLAQRFADFAWPAITWQRLVDAYTPGGNPAIYRFDCLHCGQAHYDLDFTEGGSHHHHHH”, “soluble”; in that of “MSLYKVYGDYRSGNCYKIKLMLNLLGLPYEWQAVDILGGDTQTEAFLAKNPNGKIPVLELEDGTCLWESNAILNFLADGSQFLPSEPRLRTQVLQWQFFEQYSHEPYIAVARFIQLYEGLPEERREEYLKLHKRGYKALDVMEKQLSRTPYLVGEHYSIADIALYAYTHVADEGGFDLSRYPGIQAWMQRVQSHPRHVPMLDEGHHHHHH”, “soluble”.
On to “MSGVWVFKNGVIRLVENPNQSGSDTQNRRKVMVYLPTGEVVSSYSTLEQILQSLGWERYFGGGDTDLLQFHKRSSIDLISLPRDFTKFNSVYMYDIVVKNPNYFHVRDSH”, for which the “soluble on expression in E. coli” value is listed as “not soluble”.
Under “RTYGDGTKPQTDRVVGGLVVEYDITENIMVSAHYDRTKDEGSVDSGAYIVDGKPVRGDKYIWDAQWSKIDNDVENYGIDINAQVTDNVNVKAGYNRQDFKRFDVESYPKFDNYDKDGVIRHKGNERTDNWVFDTAYLDVTTNFSLLGTENTFLVGANYLDYKYDRFMASHAGEDVAAGTTVTRPGTVRSKKYPRREHDTWGIYAQNMMTINDYWQVLAGARYDEKREDSLTENQVSPKLGVIFHPTSNGSIYVQYSESFMPQGEVSNGSRIYINDGEKLDAERGISYEIGTKWELFDQRLFVSGAVFDITLENISLDVESGKDASNQLLHKKTQGGEQVHKGAELMAQGFVTPELSLTASAMYLDAELKKAERFEGNRPADVPEFSASLWSSYRVQDNTNLNLGLIYEGDRYGDAANTFKKDGYARIDMGVSYKHKYDENLDIIARFNVENLFDTDYLAGGGSTNGNQEGASGVVVGEGRNYMATIQFKY” stands “not soluble”; under “MQRIETRKVKVGSVYVGGDSRVTVQSMTNTDTRDSKKTIEQIKKLEIAGCDIVRCAVPDFDAASSLSEITKNVKLPVVADIHFDYRLALEAIKNGVSALRINPGNIGSKERVELVAKSAKEKNIPIRIGVNSGSLEKDILNKYKRVCSEALVESALNHVKILEDVNFNDIVISIKSSNVQMMIDSYRLISKEVNYPLHLGVTEAGTIWRGTIKSSIGIGTLLSEGIGDTIRVSLTGDPVEEVKVGREILKTFGYLKSGVEFISCPTCGRTSIDLIKIANEVEKRLEKTNKSIKVAVMGCVVNGPGEAREADIGIAGGKGEGLIFKKGEIIKKVKEENLVDELMREIDNMLEHHHHHH”, “not soluble”.
Under “GSHMEEAKGPVKHVLLASFKDGVSPEKIEELIKGYANLVNLIEPMKAFHWGKDVSIENLHQGYTHIFESTFESKEAVAEYIAHPAHVEFATIFLGSLDKVLVIDYKPTSVSL” stands “soluble”.
Turning to “EFKHILVGVDDSDDAQLAFRYAINRAKSDGAKLTIVSILEQDNMNVYEAMSKDFVHGQRKDLEEHVQQYQKLARDFGVTDVNAVVDEGDPGETIVKTVIPALKPDLLVIGSVAKHGVRKYFGSQAAYMAKHAPISVLVIR”, the “soluble on expression in E. coli” value is reported as “not soluble”.
Under “MTDPSSSPIRPDMVEAARKFMLTPKVKETPFEEQRQFLLGKGVSEAEILEARASIPPEQLRSQIGTENMIPIGGHPQMMIAPKQNGIVSFAQSAVVLGSISYAGYRFVRSYVLPRFFDIPDPATEEIRQLQSQVDDLQNSIKFIMDSVSQTTQQLATQQSEISRALYSVANRDADLNRVESGISTIKSLLLSQHNFAPIVTPSVTSSIPSWQQSATPTSATSITTTTTSEAASGYATPPANFKESSLADELADIENIE” stands “not soluble”; under “MTISRTQQIQQLEQEWTSPRWKNITRPYSAEDVIKLRGSVNPECTFAQNGAKKLWELLHGGSRKGYINCLGALTGGQALQQAKAGVEAIYMSGWQVAADANTASSMYPDQSLYPVDSVPAVVKRINNSFRRADQIQWSNNIEPGSKGYTDYFLPIVADAEAGFGGVLNAFELMKAMIEAGAAGVHFEDQLAAVKKCGHMGGKVLVPTQEAIQKLVAARLAADVLGVPTLLIARTDADAADLLTSDCDPYDREFITGDRTAEGFFRTRAGIEQAISRGLAYAPYADLVWCETSTPDLALAKRFADAVHAQFPGKLLAYNCSPSFNWKKNLTDQQIASFQDELSAMGYKYQFITLAGIHSMWFNMFDLAHAYAQGEGMKHYVEKVQQPEFASVDRGYTFASHQQEVGTGYFDKVTNIIQGGASSVTALTGSTEEQQF”, “soluble”; under “MDFLSREGSPISAELWEKIDEAVVSAAKKILTGRRFISIYGPLGAGIQAINVDNISELDETEENISVIRGRTYRHIPLINEDFSLLWRDLEFSEQMGLPVDLSSASRAATQCALREDKLIFYGNDELGYKGLLTEDGIVKFPISNWSEGENPFKDISIGLAKFIENGIVGRKALVVSPNLFVQLQRIQPGTGTTEYDRINKLLDGNIFSTPVLKDDKAVLVCSEPQNIDLVIGQDMITSYLETKNLNHYFRIMETILLRIKNKKAVIVFD”, “not soluble”.
In the case of “RKKPVSQSLEFPTRYSPYRPYRCVHQGCFAAFTIQQNLILHYQAVHKSDLPAFSAEVEEE” it was “soluble”; in that of “MAAEGVRVEGDWSRLVETIRNLNLSKSELRMLNAQIAQIVAEGSKERFETEKSPEGERWEPLSPATLEARARRRTRRKDGTSGYRTKRGKLSKRAERIIASGRPLKDTGRLMRSIATKATAEAAVIGTNLVQAAIQQLGGKAGRGKKVEIPARPYLGVSSSEEADIMELINEFIRERIQ”, “not soluble”; in that of “MKATGFMGPCYAKAMATRYRFGLEEYERLFRGIRDVELLAGEVYRMSPIGPKHAWSVARLNRLFTEALGDRAVVWPQNPIRIPPHSEPQPDLALLRPKSYGEGLPTPEDVLLLVEVAETSLEHDQGLKLSLYAQAGIPEVWVLDLKENRLHVYRTPKAGVYTEHRILLPGEEAEPLAFPGVRIPWS”, “soluble”.
For “MAQSKLYPVVMAGGSGSRLWPLSRVLYPKQFLCLKGDLTMLQTTICRLNGVECESPVVICNEQHRFIVAEQLRQLNKLTENIILEPAGRNTAPAIALAALAAKRHSPENDPLMLVLAADHVIADEDAFRAAVRNAMPYAEAGKLVTFGIVPDLPETGYGYIRRGEVSAGEQDTVAFEVAQFVEKPNLETAQAYVASGEYYWNSGMFLFRAGRYLEELKKYRPDILDACEKAMSAVDPDLDFIRVDEEAFLACPEESVDYAVMERTADAVVVPMDAGWSDVGSWSSLWEISAHTAEGNVCHGDVINHKTENSYVYAESGLVTTVGVKDLVVVQTKDAVLIADRNAVQDVKKVVEQIKADGRHEHRVHREVYRPWGKYDSIDAGDRYQVKRITVKPGEGLSVQMHHHRAEHWVVVAGTAKVTIDGDIKLLGENESIYIPLGATHCLENPGKIPLDLIEVRSGSYLEEDDVVRFADRYGRV”, the “soluble on expression in E. coli” value was “soluble”.
